The sequences below were run against HLA-A*29:02 (assay: IEDB peptide-MHC binding, purified MHC/competitive/radioactivity; ≥ and ≤ were set here for values at or beyond the usual limits of such assays). Settings: source organism: Homo sapiens.
Sequence FYPELKLAY has an IC50 of 0.2 nM. Sequence GLPDLVAKY has an IC50 of 29.7 nM. HFLDRHLVF showed an IC50 of 1.6 nM. LPLDIQIFY showed an IC50 of 4.6 nM. Work on YLPALKVEY yielded an IC50 of 2.6 nM.

These sequences were tested against HLA-A*01:01 in the same assay as above. Settings: source organism: Homo sapiens.
Work on ATDGKVLLW yielded an IC50 of 191 nM. DTEFPNFKY gave an IC50 of 80.8 nM. FLWPEAFLY was tested, and the IC50 was 1.3 nM. With KLDLLEQEY the IC50 was 70.6 nM. With YVPEHWEYY the IC50 was 11.1 nM.

Each sequence was assayed against HLA-B*54:01 in the same assay as above. Settings: source organism: Homo sapiens.
FPKETFEGP showed an IC50 of 16.4 nM. Sequence FVEILIPVA has an IC50 of 12.2 nM. Work on SAPVNFISA yielded an IC50 of 16.6 nM. YPVYQPVGP gave an IC50 of 1.7 nM.

These sequences were tested against HLA-B*51:01 in the same assay as above. Settings: source organism: Homo sapiens.
With DAPLNIRSI the IC50 was 6.5 nM. DAYPQRIKF gave an IC50 of 31 nM. DGLLRVLTV gave an IC50 of 0.2 nM. Work on DGLRDLPSI yielded an IC50 of 12.6 nM. DGYVVKETI was tested, and the IC50 was 13.4 nM. For IIYPTPKVV, the IC50 was 38 nM. TPESKIRFV was tested, and the IC50 was 84.8 nM. Work on VALLVGEKV yielded an IC50 of 144 nM. VPPLVPKVL was tested, and the IC50 was 56.3 nM. YIIEREPLI gave an IC50 of 1790 nM.

From the Immune Epitope Database (IEDB)
